Results from patent US20220380450A1 (AstraZeneca / MedImmune, published 2022).

Legend:
[1] = target: T1, RAGE-Fc (R&D Systems #1145-RG) (UniProt Q15109 23-344, limits assumed); assay: ELISA: biotinylated oxIL-33 on streptavidin plate, RAGE-Fc at 10 µg/mL, anti-human IgG HRP
T1 construct: Bought reagent; not shown: Fc part of the bought fusion (detected with anti-human IgG HRP)
Description: (§1) Plates were washed 3× with 200 μl PBS-T (PBS+1% (v/v) Tween-20) and blocked with 300 μl/well blocking buffer (PBS with 1% BSA (Sigma, A9576)) for 1 hour. […] Plates were washed with 200 μl PBS-T three times. […] Plates were washed 3× with PBS-T and developed with TMB, 100 μl/well (Sigma, T0440). The reaction was quenched with 50 μl/well 0.1M H₂SO₄. Absorbance was read at 450 nm on the Cytation Gen5 or similar equipment.

[2] = target: T2, EGFR-Fc (R&D Systems #344-ER-050) (UniProt P00533 25-645); assay: ELISA: biotinylated HMGB1 on streptavidin plate, EGFR-Fc with untagged RAGE (Sino Biological 11629-HCCH) at 10 µg/mL, anti-human IgG HRP
T2 construct: Bought reagent; not shown: Fc part of the bought fusion (detected with anti-human IgG HRP)
Description: as §1

[3] = target: T1, RAGE-Fc (R&D Systems #1145-RG); assay: ELISA, FIG. 7A: biotinylated HMGB1 on streptavidin plate, RAGE-Fc
Description: as §1

[4] = target: T3, epidermal growth factor receptor (EGFR), endogenous in NHBE, DHBE and A549 cells (human, UniProt P00533 25-1210); assay: anti-EGFR (AF231) immunoprecipitation from NHBE lysate, LC-MS; cells stimulated with 30 ng/ml reduced IL-33-01 for 10 min; IL-33 not detected in complex with EGFR
T3 construct: whole, on cells; Endogenous receptor; also called EGF Receptor

T1 sequence (Q15109 23-344 limits assumed): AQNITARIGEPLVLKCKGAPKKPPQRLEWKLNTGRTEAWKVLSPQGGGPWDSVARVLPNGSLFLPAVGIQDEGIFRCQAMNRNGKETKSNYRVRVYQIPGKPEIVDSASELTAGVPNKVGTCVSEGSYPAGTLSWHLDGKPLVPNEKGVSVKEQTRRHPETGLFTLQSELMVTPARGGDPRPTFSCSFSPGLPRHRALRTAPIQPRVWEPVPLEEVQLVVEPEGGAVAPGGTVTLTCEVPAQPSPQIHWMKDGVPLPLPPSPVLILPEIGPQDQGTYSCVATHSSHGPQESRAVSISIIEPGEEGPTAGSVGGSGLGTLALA

B1: Avitag_IL-33-01 (oxidised IL-33) (ligand)
chain: MHHHHHHHHHHAAGLNDIFEAQKIEWHEAAIEGRSITGISPITEYLASLSTYNDQSITFALEDESYEIYVEDLKKDEKKDKVLLSYYESQHPSNESGDGVDGKMLMVTLSPTKDFWLHANNKEHSVELHKCEKPLPDQAFFVLHNMHSNCVSFECKTDPGVFIGVKDNHLALIKVDSSENLCTENILFKLSET
modifications: biotinylated on the Avitag with BirA; oxidised (disulphide bonded) form
notes: also called oxIL-33; biotinylated oxidised N-terminal tagged His10/Avitag IL33-01
B1: binds [1].

B2: HMGB1 (R&D systems 1690-HMB-050), biotinylated (ligand, UniProt P09429 1-215, looked up)
chain: MGKGDPKKPRGKMSSYAFFVQTCREEHKKKHPDASVNFSEFSKKCSERWKTMSAKEKGKFEDMAKADKARYEREMKTYIPPKGETKKKFKDPNAPKRPPSAFFLFCSEYRPKIKGEHPGLSIGDVAKKLGEMWNNTAADDKQPYEKKAAKLKEKYEKDIAAYRAKGKPDAAKKGVVKAEKSKKKKEEEEDEEDEEDEEEEEDEEDEDEEEDDDDE
modifications: biotinylated via free amines (EZ link Sulfo-NHS-LC-Biotin)
notes: Immobilised on streptavidin plates in the ELISA of section 10; called a known RAGE ligand / bona fide RAGE agonist
B2: no binding (tested: 10 µg/mL) [2]; binds [3].

B3: Untagged IL33-01 (ligand)
chain: SITGISPITEYLASLSTYNDQSITFALEDESYEIYVEDLKKDEKKDKVLLSYYESQHPSNESGDGVDGKMLMVTLSPTKDFWLHANNKEHSVELHKCEKPLPDQAFFVLHNMHSNCVSFECKTDPGVFIGVKDNHLALIKVDSSENLCTENILFKLSET
notes: Reduced wild type form; also called reduced IL-33; WT IL-33
B3: no binding [4].
